{"source": "patent US20190330277A1", "about": "(PIRBRIGHT INSTITUTE, published 2019)", "assay_in_all_cases": "biolayer interferometry (Octet), variant on Ni-NTA tip, Fab in solution", "key": {"bRSV RB94 postF": {"biological_target": "bRSV RB94 postF (bovine respiratory syncytial virus, …, UniProt P23728 26-109; P23728 147-513)"}, "bRSV ATue51908 postF": {"biological_target": "bRSV ATue51908 postF (bovine respiratory syncytial virus, …, UniProt P22167 26-109; P22167 147-513)"}, "[1]": {"biological_target": "bRSV 391-2 sc9 DS-Cav1 Q98C-Q361C (bovine respiratory syncytial virus, …)"}, "bRSV 391-2 postF": {"biological_target": "bRSV 391-2 postF (bovine respiratory syncytial virus, …, UniProt P22167 26-109; P22167 147-513)"}, "[2]": {"biological_target": "bRSV 391-2 sc9-10 DS-Cav1 Q98C-Q361C (bovine respiratory syncytial virus, …)"}, "bRSV ATue51908 DSCav1": {"biological_target": "bRSV ATue51908 DSCav1 (bovine respiratory syncytial virus, …, UniProt P22167 26-109)"}, "bRSV 391-2 DSCav1": {"biological_target": "bRSV 391-2 DSCav1 (bovine respiratory syncytial virus, …, UniProt P22167 26-109)"}, "[3]": {"biological_target": "bRSV ATue51908 sc9-10 DS-Cav1 A149C-Y458C (bovine respiratory syncytial virus, …)"}}, "data": [{"binder": "AM14 Fab (Fab, V domains shown, also called mAb AM14) VH: EVQLVESGGGVVQPGRSLRLSCAASGFSFSHYAMHWVRQAPGKGLEWVAVISYDGENTYYADSVKGRFSISRDNSKNTVSLQMNSLRPEDTALYYCARDRIVDDYYYYGMDVWGQGATVTVSS VL: DIQMTQSPSSLSASVGDRVTITCQASQDIKKYLNWYHQKPGKVPELLMHDASNLETGVPSRFSGRGSGTDFTLTISSLQPEDIGTYYCQQYDNLPPLTFGGGTKVEIKR", "values": [{"measurement": "Kd", "setting": "bRSV RB94 postF", "result": "> 1000", "unit": "nM"}, {"measurement": "Kd", "setting": "bRSV ATue51908 postF", "result": "> 1000", "unit": "nM"}, {"measurement": "Kd", "setting": "[1]", "result": 8.6, "unit": "nM"}, {"measurement": "Kd", "setting": "bRSV 391-2 postF", "result": "> 1000", "unit": "nM"}, {"measurement": "Kd", "setting": "[2]", "result": 12.8, "unit": "nM"}, {"measurement": "Kd", "setting": "bRSV ATue51908 DSCav1", "result": 4.8, "unit": "nM"}, {"measurement": "Kd", "setting": "bRSV 391-2 DSCav1", "result": 1.8, "unit": "nM"}, {"measurement": "Kd", "setting": "[3]", "result": 12.8, "unit": "nM"}]}, {"binder": "D25 Fab (Fab, V domains shown, also called mAb D25) VH: QVQLVQSGAEVKKPGSSVMVSCQASGGPLRNYIINWLRQAPGQGPEWMGGIIPVLGTVHYAPKFQGRVTITADESTDTAYIHLISLRSEDTAMYYCATETALVVSTTYLPHYFDNWGQGTLVTVSS VL: DIQMTQSPSSLSAAVGDRVTITCQASQDIVNYLNWYQQKPGKAPKLLIYVASNLETGVPSRFSGSGSGTDFSLTISSLQPEDVATYYCQQYDNLPLTFGGGTKVEIK", "values": [{"measurement": "Kd", "setting": "bRSV ATue51908 DSCav1", "result": 10.8, "unit": "nM"}, {"measurement": "Kd", "setting": "[3]", "result": 420, "unit": "nM"}]}, {"binder": "MPE8 Fab (Fab, V domains shown, also called mAb MPE8) VH: EVQLVESGGGLVKPGGSLRLSCAASGFTFSSYSMNWVRQAPGKGLEWVSSISASSSYSDYADSAKGRFTISRDNAKTSLFLQMNSLRAEDTAIYFCARARATGYSSITPYFDIWGQGTLVTVSS VL: QSVVTQTPSVSGAPGQRVTISCTGSSSNIGAGYDVHWYQQLPGTAPKLLIYDNNNRPSGVPDRFSASKSGTSASLAITGLQAEDEADYYCQSYDRNLSGVFGTGTKVTVL", "values": [{"measurement": "Kd", "setting": "bRSV RB94 postF", "result": "> 1000", "unit": "nM"}, {"measurement": "Kd", "setting": "bRSV 391-2 postF", "result": "> 1000", "unit": "nM"}]}]}
